Test results taken from patent publication US20100075908A1 (published 2010).
Non-standard residues stand in square brackets, D forms with d. No end group written: not given here.

B1: L100 (HPG conjugate with 100 L-peptides per HPG) (other)
peptide: CGGGGGGSHAYIGLKDR
modifications: also: coupled via vinyl sulfone to 500 kDa hyperbranched polyglycerol (HPG), about 100 peptides per HPG
B2: LR100 (HPG conjugate with 100 L-retro peptides per HPG) (other)
peptide: CGGGGGGRDKLGIYAHS
modifications: also: coupled via vinyl sulfone to 500 kDa hyperbranched polyglycerol (HPG), about 100 peptides per HPG
notes: Peptide-polymer conjugate
B3: L10 (HPG conjugate with 10 L-peptides per HPG) (other)
peptide: CGGGGGGSHAYIGLKDR
modifications: also: coupled through vinyl sulfone to 500 kDa hyperbranched polyglycerol, about 10 peptides per HPG
B4: L-CGGGGGGRDKLGIYAHS (L-retro peptide) (peptide)
peptide: CGGGGGGRDKLGIYAHS
notes: Linker CGGGGGG followed by the reversed mimotope; L-amino acids; free peptide; also called LR-pep; LR-peptide
B5: fibrinogen (ligand)
chain 1: ADSGEGDFLAEGGGVRGPRVVERHQSACKDSDWPFCSDEDWNYKCPSGCRMKGLIDEVNQDFTNRINKLKNSLFEYQKNNKDSHSLTTNIMEILRGDFSSANNRDNTYNRVSEDLRSRIEVLKRKVIEKVQHIQLLQKNVRAQLVDMKRLEVDIDIKIRSCRGSCSRALAREVDLKDYEDQQKQLEQVIAKDLLPSRDRQHLPLIKMKPVPDLVPGNFKSQLQKVPPEWKALTDMPQMRMELERPGGNEITRGGSTSYGTGSETESPRNPSSAGSWNSGSSGPGSTGNRNPGSSGTGGTATWKPGSSGPGSTGSWNSGSSGTGSTGNQNPGSPRPGSTGTWNPGSSERGSAGHWTSESSVSGSTGQWHSESGSFRPDSPGSGNARPNNPDWGTFEEVSGNVSPGTRREYHTEKLVTSKGDKELRTGKEKVTSGSTTTTRRSCSKTVTKTVIGPDGHKEVTKEVVTSEDGSDCPEAMDLGTLSGIGTLDGFRHRHPDEAAFFDTASTGKTFPGFFSPMLGEFVSETESRGSESGIFTNTKESSSHHPGIAEFPSRGKSSSYSKQFTSSTSYNRGDSTFESKSYKMADEAGSEADHEGTHSTKRGHAKSRPV
chain 2: QGVNDNEEGFFSARGHRPLDKKREEAPSLRPAPPPISGGGYRARPAKAAATQKKVERKAPDAGGCLHADPDLGVLCPTGCQLQEALLQQERPIRNSVDELNNNVEAVSQTSSSSFQYMYLLKDLWQKRQKQVKDNENVVNEYSSELEKHQLYIDETVNSNIPTNLRVLRSILENLRSKIQKLESDVSAQMEYCRTPCTVSCNIPVVSGKECEEIIRKGGETSEMYLIQPDSSVKPYRVYCDMNTENGGWTVIQNRQDGSVDFGRKWDPYKQGFGNVATNTDGKNYCGLPGEYWLGNDKISQLTRMGPTELLIEMEDWKGDKVKAHYGGFTVQNEANKYQISVNKYRGTAGNALMDGASQLMGENRTMTIHNGMFFSTYDRDNDGWLTSDPRKQCSKEDGGGWWYNRCHAANPNGRYYWGGQYTWDMAKHGTDDGVVWMNWKGSWYSMRKMSMKIRPFFPQQ
chain 3: YVATRDNCCILDERFGSYCPTTCGIADFLSTYQTKVDKDLQSLEDILHQVENKTSEVKQLIKAIQLTYNPDESSKPNMIDAATLKSRKMLEEIMKYEASILTHDSSIRYLQEIYNSNNQKIVNLKEKVAQLEAQCQEPCKDTVQIHDITGKDCQDIANKGAKQSGLYFIKPLKANQQFLVYCEIDGSGNGWTVFQKRLDGSVDFKKNWIQYKEGFGHLSPTGTTEFWLGNEKIHLISTQSAIPYALRVELEDWNGRTSTADYAMFKVGPEADKYRLTYAYFAGGDAGDAFDGFDFGDDPSDKFFTSHNGMQFSTWDNDNDKFEGNCAEQDGSGWWMNKCHAGHLNGVYYQGGTYSKASTPNGYDNGIIWATWKTRWYSMKKTTMKIIPFNRLTIGEGQQHHLGGAKQAGDV
notes: Soluble plasma fibrinogen flowed over the Biacore chip; also called free fibrinogen
B6: LR10 (HPG conjugate with 10 L-retro peptides per HPG) (other)
peptide: CGGGGGGRDKLGIYAHS
modifications: also: coupled through vinyl sulfone to 500 kDa hyperbranched polyglycerol, about 10 peptides per HPG
notes: Peptide-polymer conjugate

Tests used:
[1] = molecular target: B5; assay: SPR (Biacore), peptide-PEG-biotin on streptavidin chip, fibrinogen in flow, Langmuir analysis
Text: In this case, peptides known to interfere with fibrinogen-GPIIbIIIa interaction were synthesized, and coupled to the end of a long (3400 MW) PEG molecule whose other end was attached to biotin, as illustrated schematically in FIG. 7. As is known in the art, fibrinogen is a soluble protein in the blood plasma essential for clotting of blood which the enzyme thrombin converts into the insoluble protein fibrin. As shown schematically in FIG. 7, the biotin molecule was used to tether down the peptide-PEG onto a streptavidin-modified Biacore chip. This allowed the GPIIbIIIa mimicking peptide to be hanging off the free end of the PEG.
By allowing free fibrinogen to flow past the peptide, the binding kinetics (i.e., the “on/off rate”) between fibrinogen and the peptides were measured. Then, the fibrinogen was released from the peptide. Using several fibrinogen concentrations, it was possible to measure the KD of the binding interaction between the peptide and the fibrinogen.

[2] = molecular target: T1, GPIb on human platelets (human, UniProt P07359 17-652; P13224 26-206); assay: cell-based or functional assay
[3] = molecular target: T1, GPIb on human platelets; assay: inhibition of vWf binding to platelets in PRP, flow cytometry (FITC anti-human vWf)
Procedure: In order to prepare human platelets for testing, as approved by Canadian Blood Services' Ethics Board, samples of whole blood were drawn from healthy, consenting donors into 2.7-4.0 mL citrated tubes (BD, USA). Platelet rich plasma (PRP) was prepared from whole blood by centrifugation in a Beckman (CS-6R) bench-top centrifuge (r=203.57 mm, Beckman Coulter, USA) 164×g for 15 minutes. PRP from a number of unrelated donors were evaluated on an Adiva 120 Hematology Analyzer (Bayer, Canada) and standardized to a concentration of 300×10⁹ platelets/L in HEPES buffered saline (HBS, 10 mM HEPES, 150 mM NaCl, pH 7.4).
Thereafter the samples were diluted and fixed with 1.0 mL 0.2% formolsaline (0.2% formaldehyde, 150 mM NaCl, pH 7.20) before analysis on a FACS Canto flow cytometer (BD, USA).

[4] = molecular target: T1, GPIb on human platelets; assay: conclusion from inhibition of vWf binding to platelets, flow cytometry
[5] = molecular target: T2, wild-type GPIIbIIIa (UniProt P08514 32-1039; P05106 27-788, limits assumed); assay: not stated (comparison value given with the SPR results)
T2 construct: also called wild-type GPIIaIIIb (so in the source); integrin alphaIIbbeta3

[6] = molecular target: von Willebrand factor (vWf) (human) (UniProt P04275); assay: cell-based or functional assay

In the case of APLHK (also: coupled to PEG 3400 carrying biotin, coupled end not given here, also called A-peptide 1) [GPIIbIIIa mimotope peptide 1 (APLHK)], the Kd [1] is reported as 12.5 µM.

EHIPA (also: coupled to PEG 3400 carrying biotin, coupled end not given here, also called B-peptide 2) [GPIIbIIIa mimotope peptide 2 (EHIPA)] showed a Kd [1] of 0.334 µM.

In the case of B1, the “Aggregometry % Aggregation on Activation” value [2] is reported as 5%.

In the case of B2, the “Aggregometry % Aggregation on Activation” value [2] is reported as 5% and the “Peptide Concentration at Ic50” value [3] is reported as 22 µM.

SHAYIGLKDR [SHAYIGLKDR (SEQ ID NO:8)]: binds [4].

With B3 the “Aggregometry % Aggregation on Activation” value [2] was 5%.

With [dC]GGGGGG[dR][dD][dK][dL]G[dI][dY][dA][dH][dS] (not fully specified) [D-… (D-retro peptide; SEQ ID NO:12)] the Aggregometry % Aggregation on Activation [2] was 78%.

With B4 the “Aggregometry % Aggregation on Activation” value [2] was 5%, the IC50 [3] was 34 µM and the “Peptide Concentration at Ic50” value [3] was 34 µM.

With B5 the Kd [5] was 0.103 µM.

With B6 the “Aggregometry % Aggregation on Activation” value [2] was 5% and the “Peptide Concentration at Ic50” value [3] was 41 µM.

For CGGGGGGSHAYIGLKDR (L-amino acids; free peptide) [L-CGGGGGGSHAYIGLKDR (L-peptide)], the “Aggregometry % Aggregation on Activation” value [2] was 5%, the IC50 [3] was 48 µM and the “Peptide Concentration at Ic50” value [3] was 48 µM.

With [dR][dS][dA][dR][dM][dQ][dV][dC][dW][dN][dA][dF][dK][dN][dR] [D-pep3 (…)] the % agglutination of washed platelets at 10 minutes, ristocetin, aggregometry, 0.1 mg/mL D-pep3 (buffer 66%, BSA 55%) [6] was 69%, the % agglutination of washed platelets at 10 minutes, ristocetin, aggregometry, 0.25 mg/mL D-pep3 (buffer 66%, BSA 55%) [6] was 28% and the % agglutination of washed platelets at 10 minutes, ristocetin, aggregometry, 0.5 mg/mL D-pep3 (buffer 66%, BSA 55%) [6] was 13%.
